From publication PMC4678828, “Binding dynamics of a monomeric SSB protein to DNA: a single-molecule multi-process approach”

How the values were obtained:
[1] = target: T1, A647-SsoSSB A114C (Sulfolobus solfataricus, UniProt Q97W73 1-148, A114C); assay: single-molecule FRET kinetics; first monomer; kon 0.032 nM-1 s-1, koff ~1.75 s-1; 10 mM KCl; 50 mM Tris-HCl pH 7.6, 10 mM KCl, 5% glycerol, 0.1 mg/ml BSA, 5-50 nM DNA, 20 C (PIFE also 65 C); conditions: protein: recombinant; chain copies: 2; label: 5' biotin, 3' Cy3; single strand
T1 sequence: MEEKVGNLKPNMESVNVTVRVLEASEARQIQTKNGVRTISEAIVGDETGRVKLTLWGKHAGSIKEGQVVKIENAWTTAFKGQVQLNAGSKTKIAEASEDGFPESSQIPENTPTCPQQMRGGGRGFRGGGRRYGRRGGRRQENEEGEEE

[2] = target: T1, A647-SsoSSB A114C; assay: single-molecule FRET/PIFE/quenching kinetics; S4 pathway, two monomers in one step; kon 0.006 nM-1 s-1, koff 0.33 s-1; 50 mM Tris-HCl pH 7.6, 10 mM KCl, 5% glycerol, 0.1 mg/ml BSA, 5-50 nM DNA, 20 C (PIFE also 65 C); conditions: protein: recombinant; chain copies: 2; label: 5' biotin, 3' Cy3; single strand
[3] = target: T1, A647-SsoSSB A114C; assay: single-molecule FRET/PIFE/quenching kinetics; second monomer; kon 0.16 nM-1 s-1, koff 0.31 s-1; 10 mM KCl; 50 mM Tris-HCl pH 7.6, 10 mM KCl, 5% glycerol, 0.1 mg/ml BSA, 5-50 nM DNA, 20 C (PIFE also 65 C); conditions: protein: recombinant; chain copies: 2; label: 5' biotin, 3' Cy3; single strand
[4] = target: T2, SsoSSB wild-type (Sulfolobus solfataricus (Methods print …, UniProt Q97W73 1-148)); assay: tryptophan fluorescence quenching; Hill model; 50 mM Tris-HCl pH 7.6, 10 mM KCl, 5% glycerol, 0.1 mg/ml BSA, 5-50 nM DNA, 20 C (PIFE also 65 C); conditions: protein: recombinant; chain copies: 2; single strand
T2 sequence: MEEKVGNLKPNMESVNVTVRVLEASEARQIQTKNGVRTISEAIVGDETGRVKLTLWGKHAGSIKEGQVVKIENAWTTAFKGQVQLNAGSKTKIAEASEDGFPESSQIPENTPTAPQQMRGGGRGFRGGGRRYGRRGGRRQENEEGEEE

[5] = target: T2, SsoSSB wild-type; assay: fluorescence titration (PIFE); 65 C; Hill 1.4 ± 0.2; 50 mM Tris-HCl pH 7.6, 10 mM KCl, 5% glycerol, 0.1 mg/ml BSA, 5-50 nM DNA, 20 C (PIFE also 65 C); conditions: protein: recombinant; chain copies: 2; label: 3' Cy3 (amino); single strand
[6] = target: T1, A647-SsoSSB A114C; assay: ensemble FRET; two-site model, first monomer; 50 mM Tris-HCl pH 7.6, 10 mM KCl, 5% glycerol, 0.1 mg/ml BSA, 5-50 nM DNA, 20 C (PIFE also 65 C); conditions: protein: recombinant; chain copies: 2; label: 3' Cy3 (amino); single strand
[7] = target: T1, A647-SsoSSB A114C; assay: ensemble FRET; Hill model, 1.8 ± 0.2; 50 mM Tris-HCl pH 7.6, 10 mM KCl, 5% glycerol, 0.1 mg/ml BSA, 5-50 nM DNA, 20 C (PIFE also 65 C); conditions: protein: recombinant; chain copies: 2; label: 3' Cy3 (amino); single strand
[8] = target: T2, SsoSSB wild-type; assay: fluorescence titration (PIFE); 20 C, 10 mM KCl; Hill 1.8 ± 0.2; 50 mM Tris-HCl pH 7.6, 10 mM KCl, 5% glycerol, 0.1 mg/ml BSA, 5-50 nM DNA, 20 C (PIFE also 65 C); conditions: protein: recombinant; chain copies: 2; label: 3' Cy3 (amino); single strand
[9] = target: T1, A647-SsoSSB A114C; assay: ensemble FRET; two-site model, second monomer; 50 mM Tris-HCl pH 7.6, 10 mM KCl, 5% glycerol, 0.1 mg/ml BSA, 5-50 nM DNA, 20 C (PIFE also 65 C); conditions: protein: recombinant; chain copies: 2; label: 3' Cy3 (amino); single strand
[10] = target: T1, A647-SsoSSB A114C; assay: fluorescence self-quenching titration; 10 mM KCl; Hill 1.4 ± 0.2 in text; Fig 2 legend gives 20 ± 1 nM, Hill 1.3; 50 mM Tris-HCl pH 7.6, 10 mM KCl, 5% glycerol, 0.1 mg/ml BSA, 5-50 nM DNA, 20 C (PIFE also 65 C); conditions: protein: recombinant; chain copies: 2; single strand

## CCCCCCCCCCCC (ssDNA) [BidC12Cy3]
[1]
  Kd: 54 ± 2 nM
[2]
  Kd: ~57 nM
[3]
  Kd: ~2 nM

## TTTTTT (ssDNA) [dT6]
[4]
  Kd: 143 ± 95 nM

## CCCCCCCCCCCC (ssDNA) [dC12Cy3]
[5]
  Kd: 15 ± 1 nM
[6]
  Kd: 37 ± 4 nM
[7]
  Kd: 24 ± 2 nM
[8]
  Kd: 9 ± 1 nM
[9]
  Kd: 2.8 ± 1 nM

## CCCCCCCCCCCC (ssDNA) [dC12]
[10]
  Kd: 22 ± 1 nM
